Source: article PMC4911086 (PLoS ONE, 2016)
Values belong to the molecule of their own block, whether it stands above or below them.

Key:
RANKL (Homo sapiens) = RANKL (Homo sapiens) (UniProt O14788); conditions: cited from earlier work
recombinant human RANK = target: T1, recombinant human RANK (human, UniProt Q9Y6Q6 30-212); assay: ELISA; polyvinyl 96-well plates coated with 500 ng/well recombinant human RANK; RANKL (500 ng/mL in PBS-T with 0.1% BSA) pre-incubated with serially diluted GM-0111 for about 16 hrs at 4°C, then 1 hr at 37°C on the RANK-coated wells; bound RANKL detected with anti-RANKL antibody and HRP-conjugated anti-goat IgG, absorbance at 450 nm; conditions: both partners purified
T1 construct: human RANK, recombinant, R&D Systems cat# 683-RK; The vendor's product 683-RK is, as far as I recall, an Fc chimera of the RANK extracellular domain (human IgG1 Fc, C-terminal); also called rRANK; source: bought: R&D Systems (cat# 683-RK)
T1 sequence (looked up): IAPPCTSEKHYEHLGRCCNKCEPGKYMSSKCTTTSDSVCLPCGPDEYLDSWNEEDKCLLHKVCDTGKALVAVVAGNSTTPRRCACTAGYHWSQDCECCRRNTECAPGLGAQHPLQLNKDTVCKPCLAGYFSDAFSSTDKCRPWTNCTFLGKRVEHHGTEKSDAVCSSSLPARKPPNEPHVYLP

Molecule: OPG (from UniProt O00300)
Kd (RANKL (Homo sapiens)): 4.24 nM

binding result (recombinant human RANK): binds
B1: recombinant human RANKL (ligand, UniProt O14788 140-317, looked up)
chain: IRAEKAMVDGSWLDLAKRSKLEAQPFAHLTINATDIPSGSHKVSLSSWYHDRGWAKISNMTFSNGKLIVNQDGFYYLYANICFRHHETSGDLATEYLQLMVYVTKTSIKIPSSHTLMKGGSTKYWSGNSEFHFYSINVGGFFKLRSGEEISIEVSNPSLLDPDQDATYFGAFKVRDID
notes: The vendor's product is, as far as I recall, a soluble extracellular fragment of human RANKL; also called rRANKL; source: bought: R&D Systems (cat# 390-TN)
